Residue numbers refer to the chain shown, from its start.

Substrate in the data set: Acetylcholine
As to conditions: pH 7; 22 °C.

B1: unnamed (protein)
chain: MRPPWYPLHTPSLAFPLLFLLLSLLGGGARAEGREDPQLLVRVRGGQLRGIRLKAPGGPVSAFLGIPFAEPPVGSRRFMPPEPKRPWSGVLDATTFQNVCYQYVDTLYPGFEGTEMWNPNRELSEDCLYLNVWTPYPRPASPTPVLIWIYGGGFYSGAASLDVYDGRFLAQVEGAVLVSMNYRVGTFGFLALPGSREAPGNVGLLDQRLALQWVQENIAAFGGDPMSVTLFGESAGAASVGMHILSLPSRSLFHRAVLQSGTPNGPWATVSAGEARRRATLLARLVGCPPGGAGGNDTELIACLRTRPAQDLVDHEWHVLPQESIFRYSFVPVVDGDFLSDTPEALINTGDFQDLQVLVGVVKDEGSYFLVYGVPGFSKDNESLISRAQFLAGVRIGVPQASDLAAEAVVLHYTDWLHPEDPTHLRDAMSAVVGDHNVVCPVAQLAGRLAAQGARVYAYIFEHRASTLTWPLWMGVPHGYEIEFIFGLPLDPSLNYTTEERIFAQRLMKYWTNFARTGDPNDPRDSKSPQWPPYTTAAQQYVSLNLKPLEVRRGLRAQTCAFWNRFLPKLLSATDTLDEAERQWKAEFHRWSSYMVHWKNQFDHYSKQERCSDL
Broadly, the Km is the concentration of substrate that gives half-maximal velocity. By kcat is commonly meant the maximal rate divided by the concentration of active sites. As for B1, the Michaelis constant (Km) was 58 µM and the catalytic constant (kcat) was found to be 650 s⁻¹.

B2: unnamed (protein)
chain: B1 chain with Y103N, Y155Q, Y328F
On to B2, for which the Km came out at 95 µM and the turnover number (kcat) was found to be 1570 s⁻¹.

B3: unnamed (protein)
chain: B1 chain with Y103N, Y328F
B3: the Km came to 110 µM and the kcat is 2170 s⁻¹.

B4: unnamed (protein)
chain: B1 chain with W317R, Y328F
On to B4, for which the Michaelis constant (Km) is 420 µM and the kcat was determined as 2670 s⁻¹.

B5: unnamed (protein)
chain: B1 chain with Y155Q, Y328F
In the case of B5, the Michaelis constant (Km) was 120 µM and the turnover number (kcat) stood at 1830 s⁻¹.

B6: unnamed (protein)
chain: B1 chain with Y328F, V331G
Take B6: the Km stood at 50 µM and the turnover number (kcat) was found to be 2670 s⁻¹.

B7: unnamed (protein)
chain: B1 chain with Y328F, Y368F
Regarding B7, the Michaelis constant (Km) is 53 µM and the kcat turned out to be 1130 s⁻¹.

B8: unnamed (protein)
chain: B1 chain with Y103N, W317R, Y328F
For B8, the Km was found to be 670 µM and the kcat was 3170 s⁻¹.

(Values after the PETadex activity labels (doi:10.1021/bi00096a018).)
